From the supplement of paper PMC10567573 come the findings set out here.

± gives the standard deviation.

This data set is described as follows: protein stability index of a GFP-peptide fusion (GPS, HEK-293T) (PSI 1-6); higher = more stable. The conditions noted are these: c terminus: a fixed tail appended.
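Also: 24-mer peptide tiles fused after GFP, lentivirally expressed, FACS-sorted into six equal bins by GFP/DsRed ratio, decoded by Illumina sequencing, PSI is the read-weighted mean bin number.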

On to SHYTSPSENMWNTGSTYNLSSGMA [CARM1], for which the protein stability index by setting is: (treatment: DMSO) 2.84 ± 0.37; (treatment: MLN4924 1 uM, 8 h) 3.14 ± 0.21.

Consider SIAFRLRLASFDSSGKLICSRTTG [GMCL1], for which the protein stability index is 2.52 ± 0.4 (treatment: DMSO) and 2.09 ± 0.34 (treatment: MLN4924 1 uM, 8 h).

For SICMRMEILGCPLPDPNNYYHRRN [CPXM2], the protein stability index by setting is: (treatment: DMSO) 2.68 ± 0.27; (treatment: MLN4924 1 uM, 8 h) 2.46 ± 0.24.

SIVAQVDQTGSKSSNLLDLKNPFF [CARM1]: the protein stability index reads like this: (treatment: DMSO) 3.01 ± 0.15; (treatment: MLN4924 1 uM, 8 h) 3.43 ± 0.27.

Take SKAQELGGAGREDPGLWSRLCRLA [ZSWIM9]: the protein stability index by setting is: (treatment: DMSO) 2.96 ± 0.13; (treatment: MLN4924 1 uM, 8 h) 3.38 ± 0.33.

As to SKIFTTLDPASLAWLTEEEPEPAE [DDIT3], the protein stability index is, setting by setting: (treatment: DMSO) 5.14 ± 0.54; (treatment: MLN4924 1 uM, 8 h) 5.11 ± 0.27.

For the sequence SLDEFRQTWKLFSSHMNIDITDDC [PPEF2], the protein stability index reads like this: (treatment: DMSO) 2.49 ± 0.3; (treatment: MLN4924 1 uM, 8 h) 2.75 ± 0.21.

For the sequence SLEHTLRVAIAHYQDDPDLRFLLD [TSPAN10], the protein stability index is 2.69 ± 0.16 (treatment: DMSO) and 2.98 ± 0.14 (treatment: MLN4924 1 uM, 8 h).

With SLGKQKVFIIRKSLLDELMEVQHF [SOAT2], the protein stability index is 2.58 ± 0.52 (treatment: DMSO) and 2.56 ± 0.73 (treatment: MLN4924 1 uM, 8 h).

In the case of SLLGLLSFPRNNISYLVLSMISMG [JAGN1], the protein stability index (treatment: DMSO) was found to be 3.11 ± 0.33 and the protein stability index (treatment: MLN4924 1 uM, 8 h) worked out at 3.01 ± 0.71.

Consider SLLVTELGSSRTPETVRMVLSNME [IMPA1], for which the protein stability index runs as follows: (treatment: DMSO) 3.15 ± 0.39; (treatment: MLN4924 1 uM, 8 h) 3.4 ± 0.23.

Consider SLPPPAGLNSSWVELPMNSSNGND [BNIP3L], for which the protein stability index reads like this: (treatment: DMSO) 4.94 ± 0.26; (treatment: MLN4924 1 uM, 8 h) 4.88 ± 0.29.

As for SLQQQHQADLELIESAHRSRIKVL [FBF1], the protein stability index runs as follows: (treatment: DMSO) 3.53 ± 0.074; (treatment: MLN4924 1 uM, 8 h) 3.47 ± 0.31.

Take SLSTSSSSSPPGTPSPADAKAPPT [CEBPB]: the protein stability index runs as follows: (treatment: DMSO) 5.42 ± 0.15; (treatment: MLN4924 1 uM, 8 h) 5.34 ± 0.19.

As for SLVTVGKHLTARVLCLIVLPLALY [POMT2], the protein stability index by setting is: (treatment: DMSO) 2.63 ± 0.58; (treatment: MLN4924 1 uM, 8 h) 2.58 ± 0.33.

In the case of SMIQEQFKKGKNPTGLLALQQIAD [ADD1], the protein stability index is, setting by setting: (treatment: DMSO) 3.08 ± 0.18; (treatment: MLN4924 1 uM, 8 h) 3.17 ± 0.32.

For SMQAVLDYLYTKQLSPNLDLDPLE [RHOBTB1], the protein stability index reads like this: (treatment: DMSO) 2.47 ± 0.37; (treatment: MLN4924 1 uM, 8 h) 2.19 ± 0.47.

For SNASEDTRRLRLAHVGMELQLKQE [SCARA5], the protein stability index by setting is: (treatment: DMSO) 4.29 ± 0.33; (treatment: MLN4924 1 uM, 8 h) 4.4 ± 0.29.

As for SNEFKESALTLACYKGHLEMVRFL [ANKRD17], the protein stability index was 2.21 ± 0.18 (treatment: DMSO) and 2.4 ± 0.34 (treatment: MLN4924 1 uM, 8 h).

Regarding SNFPRQYFALRKILKQLIADVTLD [TRIM39], the protein stability index amounted to 2.54 ± 0.58 (treatment: DMSO) and 2.19 ± 0.53 (treatment: MLN4924 1 uM, 8 h).

With SNSSQDSLHKGAKRKGIKSSIGRL [PPFIA4], the protein stability index is 4.17 ± 0.22 (treatment: DMSO) and 4.22 ± 0.16 (treatment: MLN4924 1 uM, 8 h).

For the sequence SNWFVWVTQMNHIPMHIDHDRNMD [FADS1], the protein stability index was 2.09 ± 0.45 (treatment: DMSO) and 2.19 ± 0.13 (treatment: MLN4924 1 uM, 8 h).

For SPALQVMGPAQEAPVAEAWIPQAG [ZNF449], the protein stability index came out at 4.6 ± 0.086 (treatment: DMSO) and 4.65 ± 0.27 (treatment: MLN4924 1 uM, 8 h).

In the case of SPSFQLKAAALPPFPLGASAQNGL [PLAGL1], the protein stability index reads like this: (treatment: DMSO) 3.41 ± 0.32; (treatment: MLN4924 1 uM, 8 h) 3.52 ± 0.4.

Turning to SPSPPVEVKIEEPVSMEMDNHMSD [INTS3], the protein stability index reads like this: (treatment: DMSO) 5.59 ± 0.19; (treatment: MLN4924 1 uM, 8 h) 5.52 ± 0.17.

Take SQAIDLLYWRDIKQTGIVFGSFLL [RTN1]: the protein stability index is, setting by setting: (treatment: DMSO) 3.03 ± 0.81; (treatment: MLN4924 1 uM, 8 h) 3.01 ± 0.47.

For SQAPDGRRKSEAGSGAASSSGEDK [CDC25B], the protein stability index worked out at 5.65 ± 0.18 (treatment: DMSO) and 5.58 ± 0.35 (treatment: MLN4924 1 uM, 8 h).

As for SQFLKHQQTHNIEKAHECTDCGKA [ZNF649], the protein stability index (treatment: DMSO) turned out to be 4.88 ± 0.26 and the protein stability index (treatment: MLN4924 1 uM, 8 h) stood at 4.985 ± 0.041.

Regarding SQFLKLKTSVEKANAQIQILTRSW [CD207], the protein stability index by setting is: (treatment: DMSO) 2.19 ± 0.59; (treatment: MLN4924 1 uM, 8 h) 2.09 ± 0.29.

Regarding SRLLGSASPSSSVRLGSFRSPRAG [PRPH], the protein stability index stood at 4.08 ± 0.19 (treatment: DMSO) and 3.96 ± 0.18 (treatment: MLN4924 1 uM, 8 h).

In the case of SRNFGVRNQGNFSVVGTVLAATQA [ZC2HC1C], the protein stability index runs as follows: (treatment: DMSO) 2.96 ± 0.19; (treatment: MLN4924 1 uM, 8 h) 3.16 ± 0.12.

On to SRVAHIERTRKPYNNDIDYYAKRN [GALNT9], for which the protein stability index runs as follows: (treatment: DMSO) 3.77 ± 0.37; (treatment: MLN4924 1 uM, 8 h) 3.91 ± 0.33.

In the case of SSETPIEGKNMSFVNDLTVTQDGR [APMAP], the protein stability index was 4.96 ± 0.34 (treatment: DMSO) and 4.87 ± 0.25 (treatment: MLN4924 1 uM, 8 h).

Regarding SSFIKTEPSSPASLTDSVNHHSPG [ESRRG], the protein stability index was 4.79 ± 0.17 (treatment: DMSO) and 4.9 ± 0.18 (treatment: MLN4924 1 uM, 8 h).

SSFTWSVPSSGYGAVTASKHSNSP [SMTNL2] gave a protein stability index (treatment: DMSO) of 3.82 ± 0.26 and a protein stability index (treatment: MLN4924 1 uM, 8 h) of 3.87 ± 0.095.

SSGRSCRNERSIQEKLQVLMAEGL [SMG5] yielded a protein stability index (treatment: DMSO) of 2.64 ± 0.39 and a protein stability index (treatment: MLN4924 1 uM, 8 h) of 2.88 ± 0.12.
